# Biological target: CLTB-106 (negative control)
# Assay: ELISA, peptide at 1 ug per well, 2F5 at 40 ng per well; negative control
substance,measurement,value
human neutralizing monoclonal antibody 2F5,Absorbance (450 nm) (absorbance at 450 nm),0.07
